{"source": "paper PMC11004252", "about": "“Cooperative interaction of interferon regulatory factor -1 and bromodomain—containing protein 4 on RNA polymerase activation for intrinsic innate immunity” (Frontiers in Immunology, 2024)", "binders": {"B1": {"name": "interferon regulatory factor 1 (IRF1) (natural protein, human (endogenous in hSAECs), UniProt P10914 1-325, looked up)", "chain": "MPITRMRMRPWLEMQINSNQIPGLIWINKEEMIFQIPWKHAAKHGWDINKDACLFRSWAIHTGRYKAGEKEPDPKTWKANFRCAMNSLPDIEEVKDQSRNKGSSAVRVYRMLPPLTKNQRKERKSKSSRDAKSKAKRKSCGDSSPDTFSDGLSSSTLPDDHSSYTVPGYMQDLEVEQALTPALSPCAVSSTLPDWHIPVEVVPDSTSDLYNFQVSPMPSTSEATTDEDEEGKLPEDIMKLLEQSEWQPTNVDGKGYLLNEPGVQPTSVYGDFSCKEEPEIDSPGGDIGLSLQRVFTDLKNMDATWLDSLLTPVRLPSIQAIPCAP", "notes": "IRF1, endogenous in telomerase-immortalized human small airway epithelial cells (hSAECs); detected in situ with mouse IRF1 Ab (R&D MAB4830-SO); source: endogenous, hSAECs (fixed cells, mock or RSV infected)"}}, "molecular_target": "T1, Bromodomain containing protein 4 (BRD4) (human (endogenous in hSAECs), UniProt O60885 1-1362)", "T1 construct": "BRD4, endogenous in hSAECs; detected in situ with rabbit BRD4 Ab (Cell Signaling 13440); also called BRD4 CRC; source: endogenous, hSAECs (fixed cells, mock or RSV infected)", "test": "proximity ligation; Duolink in situ PLA, mouse anti-IRF1 and rabbit anti-BRD4 Abs, fixed hSAECs, RSV infected (MOI 1, 24 h), with solvent (DMSO) or BRD4i ZL0454 (complex unaffected by BRD4i)", "conditions": "partners not purified"}
{"binder": "B1", "values": [{"measurement": "fold increase of PLA complex, RSV against mock", "value": 25, "unit": "fold"}]}
